Source: the supplement of paper PMC6379048

Columns and labels:
Assay in all cases: EC50 of free RNA motif oligo competing protein binding to immobilised probe
[1] = target: LSM3 (UniProt P62310)
Method in brief: (§1)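 HEK293-FT lysate (2.5 mg protein/well) was pre-incubated 1 h at 4°C with free RNA oligos (0 nM to 30 μM), then 30 min at 4°C with the same 5′-amino-C6 oligos coupled to NHS-Sepharose beads. Bound proteins were quantified by label-free LC-MS/MS in three biological replicates and two independent experiments, and normalised to the water control. EC50 came from a four-parameter log-logistic fit; Kd is EC50 times a protein-dependent depletion factor.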

[2] = target: T1, RBMS3 (UniProt Q6XE24)
T1 sequence: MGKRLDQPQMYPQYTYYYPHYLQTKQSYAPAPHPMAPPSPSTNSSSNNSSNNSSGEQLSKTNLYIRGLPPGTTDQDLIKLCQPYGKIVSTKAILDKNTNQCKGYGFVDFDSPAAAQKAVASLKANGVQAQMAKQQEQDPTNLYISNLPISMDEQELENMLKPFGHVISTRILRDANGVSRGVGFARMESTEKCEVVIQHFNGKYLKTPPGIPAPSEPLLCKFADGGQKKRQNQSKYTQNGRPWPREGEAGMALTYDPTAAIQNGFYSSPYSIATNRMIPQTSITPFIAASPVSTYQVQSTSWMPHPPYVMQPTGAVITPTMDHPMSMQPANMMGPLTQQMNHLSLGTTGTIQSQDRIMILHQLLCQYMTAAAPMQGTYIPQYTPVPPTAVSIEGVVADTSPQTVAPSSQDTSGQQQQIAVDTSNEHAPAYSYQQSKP
Method in brief: as §1

[3] = target: SLIRP (UniProt Q9GZT3)
Method in brief: as §1

[4] = target: T2, RBM17 (UniProt Q96I25)
T2 sequence: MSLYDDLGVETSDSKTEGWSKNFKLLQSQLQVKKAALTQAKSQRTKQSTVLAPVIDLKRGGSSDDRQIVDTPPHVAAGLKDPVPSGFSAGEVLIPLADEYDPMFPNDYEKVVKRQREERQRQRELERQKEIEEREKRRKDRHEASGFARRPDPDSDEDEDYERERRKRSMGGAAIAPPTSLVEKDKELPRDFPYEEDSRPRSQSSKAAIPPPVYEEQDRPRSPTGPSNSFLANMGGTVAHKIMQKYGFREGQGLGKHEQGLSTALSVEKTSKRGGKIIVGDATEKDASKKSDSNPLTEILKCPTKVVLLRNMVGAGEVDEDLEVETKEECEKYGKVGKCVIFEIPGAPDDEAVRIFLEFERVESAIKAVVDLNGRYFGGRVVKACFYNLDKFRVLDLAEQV
Method in brief: as §1

[5] = target: T3, CHERP (UniProt Q8IWX8)
T3 sequence: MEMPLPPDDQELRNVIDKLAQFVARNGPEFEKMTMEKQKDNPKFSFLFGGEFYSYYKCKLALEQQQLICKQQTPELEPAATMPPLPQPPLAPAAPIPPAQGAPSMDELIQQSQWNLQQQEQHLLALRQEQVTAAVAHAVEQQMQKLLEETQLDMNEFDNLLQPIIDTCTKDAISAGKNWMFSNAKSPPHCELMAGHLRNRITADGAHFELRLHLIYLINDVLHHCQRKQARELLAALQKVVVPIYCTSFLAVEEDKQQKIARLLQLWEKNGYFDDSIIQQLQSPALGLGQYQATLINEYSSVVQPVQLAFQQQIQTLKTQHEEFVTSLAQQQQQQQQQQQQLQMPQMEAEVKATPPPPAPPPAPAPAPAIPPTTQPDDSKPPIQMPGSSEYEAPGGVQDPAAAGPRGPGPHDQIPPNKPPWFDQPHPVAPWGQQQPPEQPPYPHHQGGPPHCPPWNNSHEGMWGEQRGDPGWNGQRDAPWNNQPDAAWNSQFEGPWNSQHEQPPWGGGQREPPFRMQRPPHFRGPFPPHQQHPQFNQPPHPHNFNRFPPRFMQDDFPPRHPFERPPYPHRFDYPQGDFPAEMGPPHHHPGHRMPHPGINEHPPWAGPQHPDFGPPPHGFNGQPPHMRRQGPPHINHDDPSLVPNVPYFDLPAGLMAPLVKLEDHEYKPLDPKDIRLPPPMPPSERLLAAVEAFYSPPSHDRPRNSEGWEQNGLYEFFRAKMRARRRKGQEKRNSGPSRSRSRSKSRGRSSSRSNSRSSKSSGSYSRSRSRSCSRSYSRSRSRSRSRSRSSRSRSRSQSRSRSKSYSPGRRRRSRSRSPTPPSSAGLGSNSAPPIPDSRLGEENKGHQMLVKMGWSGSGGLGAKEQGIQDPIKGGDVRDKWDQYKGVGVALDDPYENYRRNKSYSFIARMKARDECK
Method in brief: as §1

[6] = target: ELAVL2 (UniProt Q12926)
Chain of ELAVL2 (Q12926 whole entry): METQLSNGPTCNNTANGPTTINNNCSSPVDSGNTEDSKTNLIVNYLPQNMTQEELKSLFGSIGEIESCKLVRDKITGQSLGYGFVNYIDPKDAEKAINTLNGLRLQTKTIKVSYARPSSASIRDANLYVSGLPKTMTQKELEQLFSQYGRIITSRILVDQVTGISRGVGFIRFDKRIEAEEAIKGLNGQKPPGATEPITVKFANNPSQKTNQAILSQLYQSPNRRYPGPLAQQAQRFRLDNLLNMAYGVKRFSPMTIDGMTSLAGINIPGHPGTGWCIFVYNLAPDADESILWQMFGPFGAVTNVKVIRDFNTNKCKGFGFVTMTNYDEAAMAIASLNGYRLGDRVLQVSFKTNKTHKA
Method in brief: as §1

[7] = target: RPS20 (UniProt P60866)
Method in brief: as §1

[8] = target: NCL (UniProt P19338)
Chain of NCL (P19338 whole entry): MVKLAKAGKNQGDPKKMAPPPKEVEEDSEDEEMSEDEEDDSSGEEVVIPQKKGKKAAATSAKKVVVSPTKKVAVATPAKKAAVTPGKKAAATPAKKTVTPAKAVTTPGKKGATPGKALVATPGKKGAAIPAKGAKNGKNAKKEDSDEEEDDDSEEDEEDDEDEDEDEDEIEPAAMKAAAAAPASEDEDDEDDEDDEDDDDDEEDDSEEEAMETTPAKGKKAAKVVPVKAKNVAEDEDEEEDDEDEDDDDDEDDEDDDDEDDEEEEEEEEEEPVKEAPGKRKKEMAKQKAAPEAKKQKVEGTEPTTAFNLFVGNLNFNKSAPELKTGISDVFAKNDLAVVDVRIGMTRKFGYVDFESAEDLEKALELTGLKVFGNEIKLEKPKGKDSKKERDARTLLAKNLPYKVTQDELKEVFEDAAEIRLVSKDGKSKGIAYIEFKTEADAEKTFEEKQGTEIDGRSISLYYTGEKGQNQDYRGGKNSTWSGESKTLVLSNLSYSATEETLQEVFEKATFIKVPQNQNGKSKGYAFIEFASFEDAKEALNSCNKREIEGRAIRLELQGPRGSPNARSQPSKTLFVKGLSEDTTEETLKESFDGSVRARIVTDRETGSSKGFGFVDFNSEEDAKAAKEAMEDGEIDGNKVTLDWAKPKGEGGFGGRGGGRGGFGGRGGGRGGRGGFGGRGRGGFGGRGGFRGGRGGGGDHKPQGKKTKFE
Method in brief: as §1

Chain of LSM3 (P62310 whole entry): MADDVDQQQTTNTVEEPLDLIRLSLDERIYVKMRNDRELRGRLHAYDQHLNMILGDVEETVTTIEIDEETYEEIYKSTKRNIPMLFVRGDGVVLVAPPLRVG

Sequence AAUAAA has an EC50 [1] of 358 nM, an EC50 [2] of 1180 nM and an EC50 [3] of 1580 nM. For the same sequence, the EC50 [4] was 2490 nM, the EC50 [5] was 1050 nM and the EC50 [6] was 9740 nM. It also gave an EC50 [7] of 3800 nM.

CUGUCCU showed an EC50 [3] of 1530 nM, an EC50 [8] of 321 nM and an EC50 [7] of 171 nM.

UAUUUAU was tested, and the EC50 [1] was 694 nM, the EC50 [2] was 279 nM and the EC50 [4] was 93.1 nM. For the same sequence, the EC50 [5] was 35.1 nM, the EC50 [8] was 2170 nM and the EC50 [6] was 3840 nM.
